{"source": "patent EP4233917A1", "about": "“ANTI-INFECTIVE CONJUGATE FOR USE IN THE TREATMENT OF ZIKA VIRUS INFECTION” (Universitat Pompeu Fabra, priority 2022, dated 2023)", "key": {"ZIKV^BR [1]": {"test_system": "ZIKV^BR", "experiment": "ZIKV inactivation assay (plaque assay on Vero cells)", "type": "cell-based, Zika virus", "details": "virus pre-treated 1 h at 37 °C, in the dark, 0.01-50 µM"}, "HBEC-5i cells [2]": {"test_system": "HBEC-5i cells", "description": "(§2) After 24 h incubation with conjugates in the set-up shown in Figure 1, an in vitro integrity assay was performed. HBEC-5i (for BBB) or JEG-3 (for BPB) cells were washed twice with PBS and once with a medium without phenol red. DMEM:F12 medium was used with HBEC-5i cells and EMEM medium was used with JEG-3 cells. Then, previously diluted 4 kDa fluorescein isothiocyanate-dextran (FD4) (Sigma-Aldrich, Spain) in the medium indicated above for each cell line and without phenol red to an absorbance of 0.1 was added to the apical side (1) and incubated for 2 h. Samples were collected at the basolateral side (2), and fluorescence intensity was measured at λex=493 nm and λem=520 nm using a Varioskan Lux plate reader. Barrier integrity was evaluated from FD4 permeability as follows: FD4 Permeability(%) = (Fi −Fcells)/(FFD4 −FMedium) × 100 [formula] where Fi is the fluorescence intensity of the sample at the basolateral side (2), Fcells is the intrinsic fluorescence intensity of cells without FD4 incubation, FFD4 is the intensity of FD4 stock initially added to the apical side (1), and FMedium is the intensity of the medium indicated above for each cell line and without phenol red."}, "JEG-3 cells [3]": {"test_system": "JEG-3 cells", "experiment": "in vitro BPB integrity assay (FD4 permeability) after translocation assay", "type": "cell-based"}, "JEG-3 cells [4]": {"test_system": "JEG-3 cells", "details": "FD4 content in basolateral side after 24 h incubation with compound, then 2 h FD4; untreated BPB 1.23%", "description": "as §2\nJEG-3 cells were cultured as a monolayer on T-flasks in EMEM supplemented with 10% (v/v) FBS and 1% (v/v) Pen-Strep. Cells were grown in a humidified atmosphere of 5% CO2 at 37 °C with the medium changed every other day. Cells were allowed to grow until confluence in a culture T-flask, then carefully harvested with trypsin-EDTA and seeded (3000 cells/well) onto rat-tail collagen-coated tissue culture 24-well inserts (4). A cellular monolayer (3) with low permeability was formed 5 days after the incubation on the tissue culture insert (4)."}, "HBEC-5i cells [5]": {"test_system": "HBEC-5i cells", "details": "10 µM on apical side, 24 h incubation; percentage of compound in the basolateral side", "description": "HBEC-5i cells were cultured as a monolayer (3) on T-flasks in DMEM:F12 supplemented with 10% (v/v) FBS, 1% (v/v) Pen-Strep and 1% (v/v) ECGS. Cells were grown in a humidified atmosphere of 5% CO2 at 37 °C (MCO-18AIC (UV), Sanyo, Japan) with the medium changed every other day. Cells were allowed to grow until confluence in a culture T-flask, then carefully harvested with trypsin-EDTA and seeded (8000 cells/well) into tissue culture 24-well inserts (4) (transparent polyester membrane with 1.0 µm pores) (BD Falcon, USA) pre-coated with attachment factor protein solution. The medium was changed every other day for 5-8 days, afterwards cells were washed with 1 × PBS followed by DMEM:F12 medium without phenol red. Next, the conjugates were diluted in DMEM:F12 without phenol red, until reaching a final 10 µM concentration, and were added to the apical side (1) of the in vitro BBB model.\n(§3) Conjugate translocation was determined by fluorescence intensity (λex= 410 nm, λem = 625 nm for MP conjugates; λex=410 nm, λem=635 nm for PP conjugates). […] After 24 h incubation, samples from the basolateral side (2) were collected and analyzed. Fluorescence was measured in a Varioskan Lux plate reader (Thermo Scientific). PPC translocation (%) was calculated as follows: PPC translocation(%) = (F_i−Fcells)/(F_PPC−F_Medium) × 100 [formula] where Fi is the fluorescence intensity of the sample collected at the basolateral side (2), Fcells is the intrinsic fluorescence intensity of cells without incubation with a peptide-protein conjugate PPC, FPPC is the intensity of total PPC initially added to the transwell apical side (1), and FMedium is the intensity of DMEM:F12 medium without phenol red."}, "[6]": {"experiment": "Serum stability in human serum", "type": "in vitro ADME", "details": "for half-life at 0.05 mM: human serum (1:1 v/v with HEPES buffer), pH 7.8, 37 °C, read-out: Serum half-life time (converted)", "procedure": "Next, 600 µL of the solution comprising the conjugate or peptide were mixed (1:1 v/v) with 600 µL of human serum, to reach a final concentration of 0.05 mM. The mixture was incubated at 37 °C and, at various time points, 50 µL (in triplicate) were taken and precipitated with 200 µL cold methanol. The samples were centrifuged at 13000 rpm, 10 min, +4 °C. Afterwards, 50 µL of each supernatant were injected on an LC-20AD instrument (Shimadzu) equipped with a Luna C18 column (4.6 mm × 50 mm, 3 µm, Phenomenex, USA) and analyzed using a 0%-95% linear gradient of MeCN into 0.1% TFA in H2O over 15 min with 1 mL/min flow rate. PDA detection at 220 nm and 401 nm was used and the half-life times were calculated by peak area integration at 401 nm, the λmax of MP and PP. Controls included blank serum (25 µL each of 1:1 v/v serum + HEPES buffer, then precipitation with 200 µL cold methanol), untreated conjugate/peptide (25 µL of 0.1 mM stock in HEPES buffer + 25 µL HEPES buffer, then precipitation with 200 µL cold methanol), and a zero-time sample (200 µL cold methanol + 25 µL serum + 25 µL 0.1 mM conjugate/peptide stock), the conjugate/peptide added last to avoid any contact with protease. Controls were analyzed by LC and LC-MS as described above."}, "JEG-3 cells [7]": {"test_system": "JEG-3 cells", "details": "10 µM on apical side, 24 h incubation; percentage of compound in the basolateral side", "description": "as §3\nJEG-3 cells were cultured as a monolayer on T-flasks in EMEM supplemented with 10% (v/v) FBS and 1% (v/v) Pen-Strep. Cells were grown in a humidified atmosphere of 5% CO2 at 37 °C with the medium changed every other day. Cells were allowed to grow until confluence in a culture T-flask, then carefully harvested with trypsin-EDTA and seeded (3000 cells/well) onto rat-tail collagen-coated tissue culture 24-well inserts (4). A cellular monolayer (3) with low permeability was formed 5 days after the incubation on the tissue culture insert (4). BPB translocation and integrity measurement methods are identical to those for the BBB in vitro model defined above."}, "JEG-3 cells [8]": {"test_system": "JEG-3 cells", "details": "JEG-3, concentrations of up to 50 µM, 24 h", "description": "(§4) HBEC-5i cells and JEG-3 cells were plated in attachment factor protein and rat-tail collagen, respectively, pre-coated 96-well flat bottom clear, black polystyrene plate (Corning, New York, USA). Afterwards cells were cultured in complete medium at 37 °C in a 5% CO2 atmosphere, with medium replaced every 2 days. When the cellular monolayer was formed, cells were treated with various concentrations of conjugates in the 6.25-50 µM range, for 24 h at 37 °C in a 5% CO2 atmosphere. Viability was evaluated by the CellTiter-Blue® assay (Promega, WI, USA), based on resazurin reduction into highly fluorescent resorufin by metabolically active cells. By distinguishing metabolic from non-metabolic cells, cytotoxicity can be indirectly determined. After incubation, cells were washed with PBS, pH 7.4, and 15 µL of CellTiterBlue® reagent in 100 µL of complete medium was added to the cells and incubated for 1.5 h at 37 °C in 5% CO2. Fluorescence (λex=560 nm, λem=590 nm), was measured in a Varioskan Lux plate reader. Complete medium and medium containing 0.25% Triton X-100 were used as positive and negative controls (100 and 0% viability), respectively. Cell viability (%) was determined as: Cell viability(%) = (F_treated−F_blank)/(F_(nontreated)−F_blank) × 100 [formula] where Ftreated is the fluorescence intensity of cells treated with a conjugate, Fnon treated is the fluorescence of untreated cells and Fblank is the fluorescence of CellTiterBlue® reagent in complete medium without cells."}, "HBEC-5i cells [9]": {"test_system": "HBEC-5i cells", "details": "concentrations of up to 50 µM, 24 h", "description": "as §4"}, "HBEC-5i cells [10]": {"test_system": "HBEC-5i cells", "details": "FD4 content in basolateral side after 24 h incubation with compound, then 2 h FD4; untreated BBB 10.3%", "description": "as §2"}, "ZIKV^BR [11]": {"test_system": "ZIKV^BR", "details": "virus pre-treated 1 h at 37 °C, in the dark, 0.01-50 µM", "description": "ZIKV^BR was propagated in C6/36 cells using a multiplicity of infection (MOI) of 0.01. After infection, cells were cultured for 7 days. The culture medium collected from the infected cultures was centrifuged at 700 g to remove cellular debris, stored in aliquots at -80 °C and titrated by plaque assay.\nTo determine the effect of conjugates on ZIKV^BR as prepared above, 10^5 plaque forming units (PFU) were pre-treated with different concentrations of conjugates in the 0.01-50 µM range for 1 h at 37 °C, in the dark. After treatment, viral samples were serially diluted (10-fold) for titration by plaque assay. Samples were incubated for 1 h at 37 °C and 5% CO2 with Vero cells. After infection, the medium was removed and 1 mL DMEM containing 1% (v/v) FBS, 100 U/mL penicillin, 100 µg/mL streptomycin and 1.5% carboxymethylcellulose was added to each well. The plates were incubated at 37 °C and 5% CO2. After 5 days cells were fixed by 1 mL of 4% (v/v) formaldehyde in H2O for 30 min. Each plate was washed and stained with a 1% (v/v) crystal violet, 20% (v/v) ethanol solution. The number of plaques on each well was counted and corrected for well dilution to determine the pfu/mL number. The half-maximum inhibitory concentration (IC50) was determined by non-linear regression with sigmoidal profile and variable slope using the software Graphpad Prism (version 6.0), only on treatments that achieved total inhibition."}, "JEG-3 cells [12]": {"test_system": "JEG-3 cells", "type": "in vitro ADME", "details": "human, 24 h, 10 µM", "procedure": "(§1) PPC translocation (%) was calculated as follows: […]"}, "HBEC-5i cells [13]": {"test_system": "HBEC-5i cells", "type": "in vitro ADME", "details": "human, 24 h, 10 µM", "procedure": "as §1"}}, "note": "Like-named read-outs stand apart in the source and are kept apart here. Ends that are not written are not given here. Peptide text beside a SMILES is read from it. * marks the point of attachment. X3 = C=CC1=C(C)c2cc3[nH]c(cc4nc(cc5[nH]c(cc1n2)c(C)c5CCC(=O)O)C(CCC(=O)*)=C4C)c(C)c3C=C; X4 = CCC1=C(C)c2cc3[nH]c(cc4nc(cc5[nH]c(cc1n2)c(C)c5CCC(=O)*)C(CCC(=O)O)=C4C)c(C)c3CC"}
{"compound": "CCC1=C(C)c2cc3[nH]c(cc4[nH]c(cc5nc(cc1n2)C(C)=C5CC)c(C)c4CCC(=O)O)c(CCC(=O)O)c3C", "note": "[MP, mesoporphyrin IX]", "values": [{"measurement": "IC50", "setting": "ZIKV^BR [1]", "value": "> 50", "unit": "µM"}, {"measurement": "BBB FD4 (%)", "setting": "HBEC-5i cells [2]", "value": 17.9, "unit": "%"}, {"measurement": "BPB FD4 (%)", "setting": "JEG-3 cells [3]", "value": 1.68, "unit": "%"}]}
{"compound": "CCC1=C(C)c2cc3[nH]c(cc4nc(cc5[nH]c(cc1n2)c(C)c5CCC(=O)N[C@H](C(=O)N[C@@H](CCC(N)=O)C(=O)N[C@@H](CCC(N)=O)C(=O)N[C@@H](CC(C)C)C(=O)N[C@H](C(=O)N[C@@H](CCCCN)C(=O)N[C@@H](CCCNC(=N)N)C(=O)N[C@@H](Cc1ccccc1)C(=O)N[C@@H](CO)C(=O)N[C@@H](CC(C)C)C(N)=O)[C@@H](C)O)C(C)C)C(CCC(=O)O)=C4C)c(C)c3CC", "note": "[MP-P1] (X4-VQQLTKRFSL-NH2)", "values": [{"measurement": "BPB FD4 (%)", "setting": "JEG-3 cells [4]", "value": 1.16, "unit": "%"}, {"measurement": "BBB translocation (%)", "setting": "HBEC-5i cells [5]", "value": 30, "unit": "%"}, {"measurement": "half-life at 0.05 mM", "setting": "[6]", "value": 16.2, "unit": "h"}, {"measurement": "BPB translocation (%)", "setting": "JEG-3 cells [7]", "value": 6.9, "unit": "%"}, {"measurement": "altered cell viability", "setting": "JEG-3 cells [8]", "value": "none"}, {"measurement": "altered cell viability", "setting": "HBEC-5i cells [9]", "value": "none"}, {"measurement": "BBB FD4 (%)", "setting": "HBEC-5i cells [10]", "value": 19.9, "unit": "%"}, {"measurement": "IC50", "setting": "ZIKV^BR [11]", "value": "> 50", "unit": "µM"}]}
{"compound": "CCC1=C(C)c2cc3[nH]c(cc4nc(cc5[nH]c(cc1n2)c(C)c5CCC(=O)N[C@@H](CO)C(=O)NCC(=O)N[C@H](C(=O)N[C@@H](CCC(N)=O)C(=O)N[C@@H](CCC(=O)O)C(=O)N[C@@H](CCC(=O)O)C(=O)N[C@@H](Cc1ccc(O)cc1)C(N)=O)[C@@H](C)O)C(CCC(=O)O)=C4C)c(C)c3CC", "note": "[MP-P3] (X4-SGTQEEY-NH2)", "values": [{"measurement": "BPB FD4 (%)", "setting": "JEG-3 cells [4]", "value": 1.17, "unit": "%"}, {"measurement": "BBB translocation (%)", "setting": "HBEC-5i cells [5]", "value": 46.6, "unit": "%"}, {"measurement": "half-life at 0.05 mM", "setting": "[6]", "value": 21.1, "unit": "h"}, {"measurement": "BPB translocation (%)", "setting": "JEG-3 cells [7]", "value": 14.2, "unit": "%"}, {"measurement": "altered cell viability", "setting": "JEG-3 cells [8]", "value": "none"}, {"measurement": "altered cell viability", "setting": "HBEC-5i cells [9]", "value": "none"}, {"measurement": "BBB FD4 (%)", "setting": "HBEC-5i cells [10]", "value": 14.6, "unit": "%"}, {"measurement": "IC50", "setting": "ZIKV^BR [11]", "value": 25.1, "unit": "µM"}]}
{"compound": "C=CC1=C(C)c2cc3[nH]c(cc4nc(cc5[nH]c(cc1n2)c(C)c5CCC(=O)O)C(CCC(=O)O)=C4C)c(C)c3C=C", "note": "[PP, protoporphyrin IX]", "values": [{"measurement": "BPB translocation (%)", "setting": "JEG-3 cells [12]", "value": 14.2, "unit": "%"}, {"measurement": "BBB translocation (%)", "setting": "HBEC-5i cells [13]", "value": 47.8, "unit": "%"}, {"measurement": "IC50", "setting": "ZIKV^BR [1]; Zika virus, Vero", "value": "> 50", "unit": "µM"}, {"measurement": "BBB FD4 (%)", "setting": "HBEC-5i cells [2]; human, 2 h, 10 µM", "value": 24.7, "unit": "%"}, {"measurement": "BPB FD4 (%)", "setting": "JEG-3 cells [3]; human, 2 h, 10 µM", "value": 0.87, "unit": "%"}]}
{"compound": "C=CC1=C(C)c2cc3[nH]c(cc4nc(cc5[nH]c(cc1n2)c(C)c5CCC(=O)O)C(CCC(=O)N[C@@H](CO)C(=O)NCC(=O)N[C@H](C(=O)N[C@@H](CCC(N)=O)C(=O)N[C@@H](CCC(=O)O)C(=O)N[C@@H](CCC(=O)O)C(=O)N[C@@H](Cc1ccc(O)cc1)C(N)=O)[C@@H](C)O)=C4C)c(C)c3C=C", "note": "[PP-P3] (X3-SGTQEEY-NH2)", "values": [{"measurement": "BPB FD4 (%)", "setting": "JEG-3 cells [4]", "value": 1.79, "unit": "%"}, {"measurement": "BBB translocation (%)", "setting": "HBEC-5i cells [5]", "value": 43.2, "unit": "%"}, {"measurement": "half-life at 0.05 mM", "setting": "[6]", "value": 3.7, "unit": "h"}, {"measurement": "BPB translocation (%)", "setting": "JEG-3 cells [7]", "value": 18.9, "unit": "%"}, {"measurement": "altered cell viability", "setting": "JEG-3 cells [8]", "value": "none"}, {"measurement": "altered cell viability", "setting": "HBEC-5i cells [9]", "value": "none"}, {"measurement": "BBB FD4 (%)", "setting": "HBEC-5i cells [10]", "value": 9.6, "unit": "%"}, {"measurement": "IC50", "setting": "ZIKV^BR [11]", "value": "> 50", "unit": "µM"}]}
{"compound": "VQQLTKRFSL-NH2 [Peptide having SEQ ID NO1, reference compound]", "values": [{"measurement": "Serum half-life time", "setting": "[6]; 0.05 mM, 37 °C", "value": 0.73, "unit": "h"}]}
